Test results taken from IntAct's records for PubMed 23066109.

B1: Tudor domain-containing protein 3 (Homo sapiens), Q9H7E2 (parent)
chain: MLRLQMTDGHISCTAVEFSYMSKISLNTPPGTKVKLSGIVDIKNGFLLLNDSNTTVLGGEVEHLIEKWELQRSLSKHNRSNIGTEGGPPPFVPFGQKCVSHVQVDSRELDRRKTLQVTMPVKPTNDNDEFEKQRTAAIAEVAKSKETKTFGGGGGGARSNLNMNAAGNRNREVLQKEKSTKSEGKHEGVYRELVDEKALKHITEMGFSKEASRQALMDNGNNLEAALNVLLTSNKQKPVMGPPLRGRGKGRGRIRSEDEEDLGNARPSAPSTLFDFLESKMGTLNVEEPKSQPQQLHQGQYRSSNTEQNGVKDNNHLRHPPRNDTRQPRNEKPPRFQRDSQNSKSVLEGSGLPRNRGSERPSTSSVSEVWAEDRIKCDRPYSRYDRTKDTSYPLGSQHSDGAFKKRDNSMQSRSGKGPSFAEAKENPLPQGSVDYNNQKRGKRESQTSIPDYFYDRKSQTINNEAFSGIKIEKHFNVNTDYQNPVRSNSFIGVPNGEVEMPLKGRRIGPIKPAGPVTAVPCDDKIFYNSGPKRRSGPIKPEKILESSIPMEYAKMWKPGDECFALYWEDNKFYRAEVEALHSSGMTAVVKFIDYGNYEEVLLSNIKPIQTEAWEEEGTYDQTLEFRRGGDGQPRRSTRPTQQFYQPPRARN

Variants of: B1
Conditions: with rpb1_human POLR2A

Row | Variant | effect of a mutation on the interaction
1 | W567S | decreasing interaction
2 | D569A | disrupting interaction
3 | Y566F | disrupting interaction
4 | Y566W | increasing interaction

Variants of: B1
Conditions: with rpb1_human POLR2A
Remark: another data set of the same source

Row | Variant | effect of a mutation on the interaction
5 | Y566F | with no effect
